± gives the half width of the 95% confidence interval.
Legend:
[1] = folding stability dG unfold (combined trypsin and chymotrypsin); higher = more stable
Outline: (§1)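 Designed mini-proteins (under 80 residues, no cysteine) in a PA-tagged cDNA display construct were digested with trypsin and chymotrypsin. Each protease was used at 11 concentrations (threefold dilutions) plus a no-protease condition, followed by sequencing. K50 was inferred by Bayesian fitting of sequencing counts, and unfolding free energy was derived against a sequence-predicted unfolded-state K50 and a shared folded-state K50, per protease or combined. Only designs with AlphaFold2 dimer inter-PAE above 15 were kept.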

[2] = folding stability dG unfold from chymotrypsin proteolysis; higher = more stable
Outline: as §1

[3] = folding stability dG unfold from trypsin proteolysis; higher = more stable
Outline: as §1

| Sequence | folding stability dG unfold [1] | folding stability dG unfold [2] | folding stability dG unfold [3] |
| --- | --- | --- | --- |
| SAGGSAGGSELEKALASAKPGEEVTVTVESTTPDGTPSVEIVEVKVEAETPSPGKENLEKNRLVSAGGSAGG [r6_893_JUSTAS] | -0.467 ± 1.84 kJ/mol | 0.35 ± 0.272 kJ/mol | -2.52 ± 0.962 kJ/mol |
| SAGGSAGGSELPEGVEVETEPIAEIEITDEDGRKYKISIEAVKIRGPDGKEFLVISVSIEELPSAGGSAGGS [r12_544_TrROS_Hall] | 15.9 ± 2.59 kJ/mol | 17.4 ± 1.42 kJ/mol | 13.6 ± 2.34 kJ/mol |
| SAGGSAGGSELPVESIETETYEDPSTGVKTVREKYPGGYVVTKTLYVPPDGPPIELPVEVRPESAGGSAGGS [r12_111_JUSTAS] | 1.78 ± 0.962 kJ/mol | 2.63 ± 0.347 kJ/mol | -0.202 ± 0.711 kJ/mol |
| SAGGSAGGSELSDEEIEALRKPPKVRIRVEIVYPDGTVEEREFSSLEEALAAAKERNVTVKILSAGGSAGGS [r12_244_TrROS_Hall] | 9.55 ± 0.372 kJ/mol | 7.38 ± 0.243 kJ/mol | 12 ± 0.502 kJ/mol |
| SAGGSAGGSEMEVKVTVEPAPAGAPPGAVVRVEVEFEDGFRITVRFTFVDGKLRAEVTEIKPVSAGGSAGGS [r12_1049_TrROS_Hall] | 14.1 ± 0.418 kJ/mol | 15.3 ± 0.255 kJ/mol | 12.2 ± 0.356 kJ/mol |
| SAGGSAGGSEPEEPEYILIERVEAGEKPKITITFKDGTKKEIEVKPGETILIKVPKDAKIEVESAGGSAGGS [r12_553_TrROS_Hall] | 3.93 ± 0.837 kJ/mol | 4.6 ± 0.544 kJ/mol | 4.11 ± 0.28 kJ/mol |
| SAGGSAGGSETRVLVRPLDGAIVIEAYRRLPDGSWVLAERIVIPTKGDDPESIARAQEVIDKLSAGGSAGGS [r12_169_TrMRF] | 18.3 ± 0.326 kJ/mol | 19.5 ± 0.364 kJ/mol | 15.7 ± 0.247 kJ/mol |
| SAGGSAGGSETVTLTLVVDSPEEAKALIDALKKAGIKEVTLEEKDGKLVLTITMSKEELEKLKSAGGSAGGS [r12_846_TrROS_Hall] | 14.3 ± 0.837 kJ/mol | 15.9 ± 0.544 kJ/mol | 9.68 ± 0.962 kJ/mol |
| SAGGSAGGSETVVIKIEVSPEELEKLKEALEEAGYEVEIRVERDENGKLTVTVTIRLPPGVKPSAGGSAGGS [r12_653_TrROS_Hall] | 12 ± 0.36 kJ/mol | 10.8 ± 0.289 kJ/mol | 13.3 ± 0.711 kJ/mol |
| SAGGSAGGSEVKTITLTIKNKETNKEIKIEVQVFKNEDGELVFIAKAEITYNGKKYTFTVLLPSAGGSAGGS [r12_619_TrROS_Hall] | 18.5 ± 1.3 kJ/mol | 18.3 ± 0.669 kJ/mol | 16 ± 1.13 kJ/mol |
| SAGGSAGGSEVKVLVYPPKGPPRLFADDVPIETLVAQFTAEDPPEPLVLVTKEEAEKLGFPLESAGGSAGGS [r12_379_TrMRF] | 1.13 ± 0.92 kJ/mol | 0.629 ± 0.586 kJ/mol | 1.82 ± 0.197 kJ/mol |
| SAGGSAGGSEVLEVVLPRPDGRLVLLRVDPEGRLALVVFPDGSVRVFEVESPEEAVQRVLDAESAGGSAGGS [r12_866_TrMRF] | 10.1 ± 0.293 kJ/mol | 10.9 ± 0.142 kJ/mol | 8.01 ± 0.226 kJ/mol |
| SAGGSAGGSEWTIESIRPRPDGSLIARVRPEGVNVSVEVEFDTLEELLAFAKLLEELGGKVTGSAGGSAGGS [r20_177_TrMRF] | 7.61 ± 0.243 kJ/mol | 8.26 ± 0.0962 kJ/mol | 6.78 ± 0.167 kJ/mol |
| SAGGSAGGSEWYEIRIPGIKGSADDLVEDIQDWFPAPNMKISIEEVEPMGDGLPGMTIKLRVNSAGGSAGGS [r12_348_TrROS] | 1.59 ± 0.226 kJ/mol | 1.51 ± 0.46 kJ/mol | 0.951 ± 0.138 kJ/mol |
| SAGGSAGGSEYRIELELFRTPEGGLVVPVRIYPPDGGRFEGPASLEELVERFGFSFPPLLELLSAGGSAGGS [r20_235_TrMRF] | 9 ± 0.385 kJ/mol | 10.6 ± 0.502 kJ/mol | 6.63 ± 0.146 kJ/mol |
| SAGGSAGGSFEILEVHPVKDGWLMIVVRTPGKMKVITIPPDDLDEIPGLDDIAIFPVKDGEPISAGGSAGGS [r12_343_TrROS] | 5.77 ± 0.879 kJ/mol | 6.89 ± 0.502 kJ/mol | 5.35 ± 0.205 kJ/mol |
| SAGGSAGGSFKDVPPGLKPLREEENVLFYQLPDGSYLVLVKEGDKIKKIKASKSTSIEEAIKKSAGGSAGGS [r12_605_JUSTAS] | 6.74 ± 0.669 kJ/mol | 8.73 ± 0.172 kJ/mol | 1.84 ± 0.46 kJ/mol |
| SAGGSAGGSFPLDEIRKFAKKLGNPFIEIEPVKPHVYRIKIYNKKNGKKKEFPIYLDEDGKIMSAGGSAGGS [r12_170_TrROS] | 4.84 ± 0.544 kJ/mol | 5.32 ± 0.628 kJ/mol | 4.15 ± 0.222 kJ/mol |
| SAGGSAGGSFRIPKGDPNMKIRIIFQWPNGQPMPMEYTVTPDGTFKINIPGMPPNRIESIEIWSAGGSAGGS [r12_477_TrROS] | 8.16 ± 0.879 kJ/mol | 7.05 ± 1.09 kJ/mol | 8.3 ± 0.711 kJ/mol |
| SAGGSAGGSGGMTPTSRDYVLPNGEKLAVEETFTFPDGSSVTKVLDPKTGTTTTLPASTIASASAGGSAGGS [r12_488_JUSTAS] | 1.65 ± 0.46 kJ/mol | 1.34 ± 0.544 kJ/mol | 1.89 ± 0.134 kJ/mol |
| SAGGSAGGSGGVIDIPVYGEDGEKFIASAPKEVIEKAIKEGKPIEVYVVDDGKIIKKFTISTGSAGGSAGGS [r12_991_TrMRF] | 0.148 ± 0.502 kJ/mol | -0.275 ± 0.711 kJ/mol | -0.335 ± 0.385 kJ/mol |

| Sequence | folding stability dG unfold [1] | folding stability dG unfold [2] | folding stability dG unfold [3] |
| --- | --- | --- | --- |
| SAGGSAGGSGKPLLLVRLKIRNKETGEEETVVLEADSLDEALARLPPGAEIVSIEVVRLDLPPSAGGSAGGS [r12_208_TrROS_Hall] | 22.3 ± 0.544 kJ/mol | 22.5 ± 0.314 kJ/mol | 18.1 ± 0.669 kJ/mol |
| SAGGSAGGSGKVLVLPLPGGTVEEVKEIAKEIKEKYPNAKVTTEVFPTPEGDLVAVVTLENPESAGGSAGGS [r12_425_TrMRF] | 0.116 ± 0.92 kJ/mol | -0.303 ± 0.364 kJ/mol | 1.28 ± 0.46 kJ/mol |
| SAGGSAGGSGLEILEEREAVFPLHGLVVKREVVVRSPDGVPLVFVEVEAHPELLPLVERLFERSAGGSAGGS [r12_457_TrMRF] | 0.579 ± 0.414 kJ/mol | -0.065 ± 0.544 kJ/mol | 0.887 ± 0.226 kJ/mol |
| SAGGSAGGSGLPIVVQEDGTLVLRREGDGTAAFDVVPLEEFERLPEEFLESLPASALPDPLPLSAGGSAGGS [r12_793_JUSTAS] | 3.69 ± 0.418 kJ/mol | 5.89 ± 0.46 kJ/mol | -1.79 ± 0.837 kJ/mol |
| SAGGSAGGSGMKRTATVVERDPATGRVLLEITDGSKTTTRVLEGPPSGRGAASSPEIDSLSLLSAGGSAGGS [r12_421_JUSTAS] | -1.77 ± 0.41 kJ/mol | -0.708 ± 0.502 kJ/mol | -4.83 ± 1.21 kJ/mol |
| SAGGSAGGSGMTLEEIAERLKEEYNAPEVKVTRDPSKPVYTVTVTLADGSTKTYTIYVPEELGSAGGSAGGS [r12_114_JUSTAS] | 14.4 ± 0.385 kJ/mol | 15.6 ± 0.213 kJ/mol | 11 ± 0.197 kJ/mol |
| SAGGSAGGSGNATVMLMFPIEISITVMEWDNGKPKMKTQEIEIWVMIMIPVPPPPDPGDPEWNSAGGSAGGS [r12_713_TrROS] | 15.7 ± 0.46 kJ/mol | 17.1 ± 0.297 kJ/mol | 11.9 ± 0.318 kJ/mol |
| SAGGSAGGSGPMDDPVPPRFSVETSVSPVALPPEFVAYVAAHPEEVDAVYTTTVVVLEEGPAGSAGGSAGGS [r12_196_JUSTAS] | -1.88 ± 0.92 kJ/mol | -2.02 ± 3.31 kJ/mol | -2.34 ± 0.314 kJ/mol |
| SAGGSAGGSGPVLLVRVRPDGTREILDVLPPDEPVENLPAGEFREFRLIPTESLEDALRKALASAGGSAGGS [r12_452_TrMRF] | -0.0143 ± 0.879 kJ/mol | 1.27 ± 1.55 kJ/mol | -1.84 ± 2.26 kJ/mol |
| SAGGSAGGSGSLEKVFTGENKIITIKYLPDGKVIITLHDPSTPKPIAVIEAKPSEIEEILKKESAGGSAGGS [r20_129_TrMRF] | 7.37 ± 0.544 kJ/mol | 7.78 ± 0.318 kJ/mol | 5.17 ± 0.502 kJ/mol |
| SAGGSAGGSGSMLPITTVTPTPDGVWKITYELPDGSTRTITVPPDDLSLSGPPSSSGSSAALASAGGSAGGS [r20_194_JUSTAS] | 3.2 ± 0.628 kJ/mol | 0.171 ± 1.3 kJ/mol | 5.35 ± 0.381 kJ/mol |
| SAGGSAGGSGSMSTPVTEEITLTLTRTTEDGTEVVITIKVKVVKDPTSDVVTVTEVLSETVEPSAGGSAGGS [r12_358_JUSTAS] | 9.93 ± 0.414 kJ/mol | 10.6 ± 0.163 kJ/mol | 9.11 ± 0.213 kJ/mol |
| SAGGSAGGSGSVEFETDLKDPNIRKAIEEALKEGKKTAVIPFPDGAEGRIVEVEGDKVRVEISSAGGSAGGS [r12_334_TrMRF] | 3.51 ± 0.502 kJ/mol | 5.38 ± 0.414 kJ/mol | 0.135 ± 0.628 kJ/mol |
| SAGGSAGGSGTSTKINILLPVKPGETVKLKVEVNLNSKKVLFYVDVKKNPVGNYLSATFTVTGSAGGSAGGS [r12_136_TrMRF] | 16.1 ± 0.962 kJ/mol | 18.5 ± 0.502 kJ/mol | 11.5 ± 1.26 kJ/mol |
| SAGGSAGGSGVLVRITATHPDGSTEEVLEIEVPNDENDPAKLKAIAEELAKKAGMKNIKIELLSAGGSAGGS [r12_569_JUSTAS] | 9.68 ± 0.293 kJ/mol | 10.4 ± 0.113 kJ/mol | 8.18 ± 0.197 kJ/mol |
| SAGGSAGGSGVSSVLESLPPSYTVTVEKLPESGKLVVTVTSPSGAAPSLTLDEELADLLKELLSAGGSAGGS [r12_174_JUSTAS] | 6.15 ± 0.389 kJ/mol | 2.62 ± 0.126 kJ/mol | 9.18 ± 0.544 kJ/mol |
| SAGGSAGGSGVSSVRPVALPGGRVLVLEYFSSTGKVRVTTLTVGDGRPARAESVTPVTPESILSAGGSAGGS [r12_961_JUSTAS] | 2.07 ± 0.377 kJ/mol | 1.15 ± 0.41 kJ/mol | 2.5 ± 0.218 kJ/mol |
| SAGGSAGGSGVTIPIWYKMDPGQPVPTAEEIQNIINELGFPIKDIKVQYHPDNGYVRAEITVKSAGGSAGGS [r12_1052_TrROS] | 4.63 ± 0.711 kJ/mol | 3.46 ± 0.368 kJ/mol | 5.23 ± 0.201 kJ/mol |
| SAGGSAGGSGYLSQERPVTIKLPNGEVVEVDGVVRESPESDVVTVEIPETGQTIEVPKANVVESAGGSAGGS [r12_772_JUSTAS] | 1.87 ± 0.418 kJ/mol | -0.146 ± 0.669 kJ/mol | 3.81 ± 0.251 kJ/mol |
| SAGGSAGGSHRIIFRINSPGMPPRQAADRIADMLQEEHGLKIKGVDIWTYPNGSYWVTITIEPSAGGSAGGS [r12_781_TrROS] | 12.1 ± 0.305 kJ/mol | 12.5 ± 0.176 kJ/mol | 11.6 ± 0.23 kJ/mol |
| SAGGSAGGSIEELAKKTNIIEVKVTEFPNPKFKKAFIVYKNPKENKYKKGIYIFYDKKDGKLESAGGSAGGS [r12_133_TrMRF] | 1.31 ± 0.962 kJ/mol | 2.28 ± 1.8 kJ/mol | -0.772 ± 1.46 kJ/mol |

Source: the supplement of paper PMC12764529
